Data on 9 molecules can be found in article PMC4603797, “The Structural Differences between a Glycoprotein Specific F-Box Protein Fbs1 and Its Homologous Protein FBG3” (PLoS ONE, 2015).

Substitutions are numbered along the chain they refer to.

For assay [1], the target named is ribonuclease B (UniProt P61823). Briefly: pull-down. Particulars: read off a plot; for percent of parent: parent: est. 100; for other: Relative RNase B binding (% of Skp1–Fbs1 wild type control): parent: n.d.
Assay [2] has the same target. Briefly: pull-down. The settings on record: parent: est. 100; read off a plot.
For another assay, the target named is T1, Fbs1 SBD L220K (murine, UniProt Q80UW2 117-297, L220K).
T1 construct: Fbs1/FBXO2, murine, SBD residues 117-297; Made with the KOD-Plus Mutagenesis kit; source: E. coli (pET15b), purified (Ni-NTA, gel filtration)
T1 sequence (looked up): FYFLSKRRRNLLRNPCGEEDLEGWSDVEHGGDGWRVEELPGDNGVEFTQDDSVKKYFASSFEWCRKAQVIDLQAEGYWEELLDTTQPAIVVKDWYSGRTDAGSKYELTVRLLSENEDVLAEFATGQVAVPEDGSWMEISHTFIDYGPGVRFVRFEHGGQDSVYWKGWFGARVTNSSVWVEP
The assay can be described thus: pull-down; His-tagged Fbs1 SBDs (15 μg) immobilised on Ni-NTA agarose, incubated with 10.7 μg RNase B at 4°C for 1 h; 20 mM Tris-HCl pH 7.5, 20 mM imidazole, 500 mM NaCl; SDS-PAGE, CBB staining, densitometry. Particulars: both partners purified.

The target of assay [3] is T2, SBD of Fbs1 (117–297), wild type (murine, UniProt Q80UW2 117-297).
T2 construct: In pET15b; also called Fbs1 SBD; Fbs1 wild type; source: E. coli Rosetta (DE3), purified (Ni-NTA, gel filtration)
T2 sequence (looked up): T1 sequence (looked up) with K104L
The assay is described as above. The settings on record: both partners purified.

In the next assay the target is T3, Fbs1 SBD T215P (murine, UniProt Q80UW2 117-297, T215P).
T3 construct: Fbs1/FBXO2, murine, SBD residues 117-297; Made with the KOD-Plus Mutagenesis kit; source: E. coli (pET15b), purified (Ni-NTA, gel filtration)
T3 sequence (looked up): T1 sequence (looked up) with T99P, K104L
The description is as above. Particulars: both partners purified.

The next assay deals with T4, Fbs1 SBD A217C (murine, UniProt Q80UW2 117-297, A217C).
T4 construct: Fbs1/FBXO2, murine, SBD residues 117-297; Made with the KOD-Plus Mutagenesis kit; source: E. coli (pET15b), purified (Ni-NTA, gel filtration)
T4 sequence (looked up): T1 sequence (looked up) with A101C, K104L
The assay is described as above. The settings on record: both partners purified.

For “SBD of Fbs1 (117–297), wild type (from UniProt Q80UW2) loop β2-3 of Fbs1 replaced by that of FBG3”, the percent of parent in the assay with ribonuclease B [1] came out at 62%.
Consider “SBD of Fbs1 (117–297), wild type (from UniProt Q80UW2) loop β5-6 of Fbs1 replaced by that of FBG3”, for which the percent of parent in the assay with ribonuclease B [2] came out at 25%; with ribonuclease B [1], 28%.
As to “SBD of Fbs1 (117–297), wild type (from UniProt Q80UW2) loop β7-8 of Fbs1 replaced by that of FBG3”, the percent of parent in the assay with ribonuclease B [1] amounted to 96%.
The same measure, in the same setting: the same measure for “SBD of Fbs1 (117–297), wild type (from UniProt Q80UW2) loop β9-10 of Fbs1 replaced by that of FBG3”: 110%; for “SBD of Fbs1 (117–297), wild type (from UniProt Q80UW2) loops β2-3/β5-6 of Fbs1 replaced by those of FBG3”: 12%.
Consider “SBD of Fbs1 (117–297), wild type (from UniProt Q80UW2) loops β2-3/β5-6/β7-8/β9-10 of Fbs1 replaced by those of FBG3”, for which, in the assay with ribonuclease B [1], the percent of parent turned out to be 2.5%.
For “Skp1–FBG3 complex, wild type (His-tagged Skp1) (from UniProt P63208;Q9H4M3) loops β2-3/β5-6/β7-8 of FBG3 replaced by those of Fbs1”, in the assay with ribonuclease B [1], the other: Relative RNase B binding (% of Skp1–Fbs1 wild type control) was determined as 84%.
The same measure, in the same setting: the same measure for “Skp1–FBG3 complex, wild type (His-tagged Skp1) (from UniProt P63208;Q9H4M3) loops β2-3/β5-6/β7-8/β9-10 of FBG3 replaced by those of Fbs1”: 78%.

B1: ribonuclease B (enzyme, bovine, UniProt P61823 27-150, looked up)
chain: KETAAAKFERQHMDSSTSAASSSNYCNQMMKSRNLTKDRCKPVNTFVHESLADVQAVCSQKNVACKNGQTNCYQSYSTMSITDCRETGSSKYPNCAYKTTQANKHIIVACEGNPYVPVHFDASV
modifications: a single high-mannose oligosaccharide
notes: ribonuclease B (glycosylated pancreatic ribonuclease), bovine pancreas; The Fbs proteins recognise the N-glycan of this glycoprotein; also called RNase B; source: bought: Sigma Aldrich (from bovine pancreas)
As to B1, the binding result (with Fbs1 SBD L220K; in assay [3]; with Fbs1 SBD T215P; with Fbs1 SBD A217C) was “binds” throughout.
